Laboratory results taken from article PMC3591335.
Read-outs that look alike come from different tables or passages of the source.

Assays:
[1] = biological target: Cholera toxin B subunit expressed in E. coli (eCTB) (Vibrio cholerae) (UniProt P01556); assay: non-heat-denaturing SDS-PAGE
[2] = biological target: Cholera toxin B subunit expressed in E. coli (eCTB) (Vibrio cholerae) (UniProt P01556); assay: non-heat-denaturing SDS-PAGE; remark: listed apart in the source

**Q.** Which results are given for “Cholera toxin B subunit expressed in E. coli (eCTB) (from UniProt P01556 22-124) (natural protein)”?
**A.** stoichiometry N [1]: 5; stoichiometry N [2]: 10
